# Experimental data from the nanobody polyreactivity screen of Harvey et al. (2022).
# Experiment: yeast display, Sf9 membrane polyspecificity reagent, FACS + sequencing; frameworks hold sequencing errors
# Procedure, shortened: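 After 36–48 hours of galactose induction, yeast (Saccharomyces cerevisiae BJ5465) displaying a synthetic nanobody library were stained at 4 °C for 1 hour with 10% biotinylated, detergent-solubilized Sf9 membrane reagent. Streptavidin microbeads enriched the stained cells before FACS sorting into low and high (top ~1%) gates on anti-HA and streptavidin fluorescence. Each clone's polyreactivity label reflects its gate of origin.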
row,Sequence,polyreactivity (PSR sort gate)
1,QVQLVESGGGLLQAGGSLRLSCAASGRTFHLYAMGWYRQAPGKERELVAAIRGRSGSTYYADSVKGRFTISRDNAKNTVYLQMNSLKPEDTAVYYCAVGRYPYGSARYRFDYWGQGTQVTVSS,high polyreactivity
2,QVQLVESGGGLVQAGGSLRLSCAASGFTFQGNVMGWYRQAPGKERELVAVITSGGSTYYADSVKGRFTISRDNAKNTVYLQMNSLKPEDTAVYYCAARAYTWGPAGQVEKYYYWGQGTQVTVSS,high polyreactivity
3,QVQLLGSGGGLVQACGSLRLSCSASGSISHYIFMGWYRQAPAKEREFVAGIGYGGTTNYADSVKGRFTISRDNAKNTVYLQMNSLKPEDTAMYYCAAREATAFYLYYCGQGTQVTVSS,low polyreactivity
4,QVQLVESGGGVVQAGGSLRLRCAASGRTFGQNVMGWYRQAPGKERELVAAISWSGARTYYADSVKGRFTISRDNVKNTVYLQMNSLNPEDTAVYYCNAPPYAYYGMYYWGQGTQVTVSS,high polyreactivity
5,QVQLVESGGGLVQAGGSLRLSCAASGSTFSTYAMGWYRQAPGKERELVARITRGGSTNYADSVKGRFTISRDNAKNTVYLQMNSLKPEDTAVYYCAAGIRSGRKYDYWGQGTQVTVSS,low polyreactivity
6,QVQLVESGGGLVQAGGSLRLSCAASGRIFVHYVMGWYRQAPGKERELVAAITVSGGGTYYADSVKGRFTISRDNAKNTVYLQMNSLKPEDTAVYYCNAVPHPYDWGQGTQVTVSS,low polyreactivity
7,QVQLVETGGGLVQAGGSLRLSCAATGLNFWLYAMAWYRQAPGKEREFVAVISWSGGTTYYADSVKGLFTISRDYAKNTVYLTMTTLIPEDTAVYFCAAQVCYYTNYREFDYWGQGTQVTVSS,low polyreactivity
8,QVQLVKSGGGLVQAGGSLRLSCAASGIIFWLYDMGWYRQAPGKERELVAVITWSGDSTYADSVKGRFTISRDNAKNTVYLQMNSLKPEDTAVYYCAAREYYRKPYDHWGQGTQVTVSS,high polyreactivity
9,QVQLVESGGGLVEAGGSLSLTCAASGRPFQYYAMRWYRPAPGKEREFVAAITRTGARTYYAVSVKGRFTISRDNAKNTVYLQMNSLKPEATAVYYCAKSLTFYSWRDYGYWGQGTQVTVSS,high polyreactivity
10,QDQLVESGGGLVQAGGSLRLSCAASYYAMGWYRQAPGKERELVASISSGGSTNYADSVKGRFTISRDNAKNTVYLQMNSLKPDDTAVYYCAAQYYATYGYWGQGTQVTVSS,low polyreactivity
11,QVQLVESGGGLVQAGGSLRLSCAASGSIFLRYAMGWYRQAPGKERELVAAITTGGGSTYYADSVKGRFTISRDNAKNTDYLQMNSLKPVDTAVYYCAKRAQYHWRGRDDYSYYYWGQGTQVTVSS,low polyreactivity
12,QVQLVESGRGLVQAGGSLLLICAASGSTFYTNAMGWYRQAPGKERELVASITGGGSTYYADSVKGRFTISRDNAKNTVYLQMNSLKPEDTAVYYWAAVNFGGGWEFDSWGQGTKVTVSS,low polyreactivity
13,QVQLVESGGRLVQAGGSLRLSCAASGRTFGKYVMGWYRQAPGKERELVAAISRSGGGTYYADSVKGRFTISRDNAKNTVYLQMNSLKPEDTAVYYCAKGSRSNIFQDSYNYWGQGSQVTVSS,high polyreactivity
14,QVQRVESGGGLVQAGGSLRLSCAASGLTFPSYAMGWYRQAPGKERELVATISNGSSTYYADSVKGRFTISRDNAKNTVYLQLNSLKPEDTAVYYCAKDYYYSRNPLYGHDYWGQGSQVTVSS,low polyreactivity
15,QVQLVESGGGLVQAGGSLRLSCAASGRTFYGNAMGWYRQAPGTEREFVAAITRSGGTTYYADSVKGRFTISRDNAKNTVYLQMNSLKPEDTAVYYCARSYGWYRWAGYDYWGQGTQVTVSS,high polyreactivity
16,QVQLVESGVGLVQAGGSLRLSCAASGFTFRRYAMGWYRQAPGKERELVAAITSSGGNTYYADSVKGRFTISRDNAKNTVYLQMNSLKPEDTAVYYCAKRAFYSSSYDYWGQGTQVSVSS,high polyreactivity
17,QVQLVESGGGLVQAGGSLRLSCAASGFTFTPNAMGSYRQAPGKERELVAAITSGGNTYADSVKGRFTISRDNAKNTVYLQMNSLKPEDTAVYYCAKGEGYWYIARYLPVGYGYWGQGTQVTVSS,low polyreactivity
18,QVQLVESGAGLVQAGGSLRLSCAASGRTFPYYVMGWYRQAPGKERELVAAIRRTGGSTYYADSVKGRFTISRDNAKNTVYLQMNSLKPEDTAVYYCTQRHSILYEGGYDYWGQGTQVTVSS,low polyreactivity
19,QVQLVESGGGLVQAGGSLRLSRAASGSTFVENAMGWYRQAPGKERELVAAISSSGDSTFYADSVKGRFTISRDNAKNTVYLQMNSLKPEDTAVYYCAADRRINYDGLDMDYWGQGTQVTVSS,low polyreactivity
20,QVQLVESGGGLVQAGGSLRLSCAASGRIFDTYVMGWYRQAPGKERELVAAISRSGGSTYYADSVKGRFTISRDNAKNTVYLQMNSLKPEDTAVYYCNKLASWWSAYYNPYEYWGQGTQVTVSS,high polyreactivity
21,QVQLVESGGGLVQAGGSLRLSCAASGRISYLYTMGWYRQAPGKERELVAAIRWRDGSTYYADSVKGRFTISRDNAKNTVYLQMNSLKPEDTAVYYCASTPVGFYWYDYWGQGTQVTVSS,low polyreactivity
22,QVHLVESGGGLVQAGGSLRLTCAASGRTFGWNVMGWYRQAPGKERELVAAISGSGGSTYYADSVKGRFTISRDNAKNTVYLQMNSLKPEDTAVYYCAALYGPGREYDYWGQGTQVTVSS,low polyreactivity

row,Sequence,polyreactivity (PSR sort gate)
1,QVQLVESCGGLVQAGGSLRLSCAASGFTFVYYAMGWYRKAPGKEREFVAAISKSGGSTYYADSVKGRFTISRDNAKNTVYLQMNSLKPEDTAVYYCAARSYQGTSSGRVTRRYDYWGQGTQVTVSS,high polyreactivity
2,QVQLVESGGGLVQAGGSLRLSCAASGRTFVANRMGWYRQAPGKERELVAAINDGDDTYYADSVKGRFTISRDNAKNTVYLQMNSLKPEDTAVYYCAADIIYGYEVYTYTSDYWGQGTQVTVSS,low polyreactivity
3,QVQLVESGGGLVQAGGSLRLSCAASGLTFWFNAMGWYRQAHGKEREFVAAISLSSTYYADSVKGRFTISRDNAKNTVYLQMNSLKPEDTAVYYCAAELSVSLYDFDYWGQGTQETVSS,high polyreactivity
4,EEELVESGGGFVQVGGSLRLSCAASGSIFVENAMGWYRQAPGKARELVAAITSGGSTNYADSVKGRFTISRDNAKNTVYLQMNSLKPEDTAVYYCNADENYGYYTHFGYWGQGTQVTVSS,low polyreactivity
5,QVQLVESGGGLVQAGGSLRLSCAASGSTFGQYAMGWYRQAPGKERELVAAISRNGGRTYYADSVKGRFTISRDNAKNTVYLQMNSLKPEDTAVYYCAAGGFHYVYYRGMYYWGQGTQVTVSS,high polyreactivity
6,QVQLVESGGGLVQAGGSLRLSCGATGSIFKTYAMGWYRQAPGKERELVAAISQRGGSTYYADSVKGRFTISRDNAKNTVYLQMNSLKPEDTAVYYCAARYAYQSYLYRFDYWGQGTQVTVSS,high polyreactivity
7,QVQLVESGGGLVQAGGSLRLSCAASGRIFSFNAMGWYRQAPGKERELVAGITYGGNTYYADSVKGRFTISRDNAKNTVYLQMNSLKPEDTAVYYCAAVRGGRHDYWGQGTQVTVSS,low polyreactivity
8,QVQLVESGGGLVQAGGSLRLSCAASGITFRRYTMGWYRQPPGKERELVATISLSDGNTYYADSVKGRFTISRDNAKNTVYLQMNSLKPEDTAVYYCNARHTWHQTYDYWGQGTQVTVSS,low polyreactivity
9,QVQLVESGGGLVQAGGSLRLSCAASGSTFEYNAMGWYRQAPGKERELVAAISRTANANYADSVKGRFTISRDNAKNTFYLQMNSLKPEETAVYYCAADFLDSKVHVRFGYWGQGTQVTVSS,low polyreactivity
10,QVQLVETGGGLVQAGGRLRLSCAASGSTFKNNAMGWSRQAPGKEREFVAGITRRGTSTYYADSVKGRFTISRDNAKNTVYLQMNSLKPEDTAVYYCNARLRARSTIKLDYWGQGTQVTVSS,high polyreactivity
11,QGQLVESGGGLVQAGGSLRLSCPASGYIFWTNNMGWYRQSPGKERELVAAISYSGSSTYYADSVKGRFTISRDNAKNTVYLQMNSLKPEDTAVYYCAKKVRRYPTRYDSWGQGTQVTVSS,high polyreactivity
12,QVQLVESGGGLVQAGGSLRLSCAASGFTFYYNAMGWYRQAPGKERELVASITRSGGRTYYADSVKGRFTISRDNAKNTVYLQMNSLKPEDTAVYYCARRYPGGYYWGQGTQVTVSS,high polyreactivity
13,QVQLVESGGGLVQAGGSLRLSCAASGITLTRYAMGWYRQAPGKERELVAAITWSGGSTYYADSVKGRFTISRDNAKNTVYLQMNSLKPEDTAVYYCAAEYYEWVFWGYDYWGQGTQVTVSS,high polyreactivity
14,QVQLVESGGGLVQAGGSLRLSCAASGRIFRFYAMGWYRQAPGKERELVAAITRNVGSTFYADSVKGRFTISRDNAKNTVYLQMNSLKPEDTAVYYCAAESDYYYRYTFDYWGQGTQVTVSS,low polyreactivity
15,QVQLVESGGGLVQAGGSLRLSCAASGRIYWYYAMAWSRQAPGKERELVAAINSGGNTNYADSVKGRFTISRDNAKNTVYLKMNSLKPEDTAVYYCAKGRWPLLLSKDLYYWGQGTQVTVSS,high polyreactivity
16,QVQLVESGGGLVQAGGSLRLSCAASGFIIIGYVMGWYRQAPGNERELVAAITSSGSGTYYADSVKGRVTISRDNAKNTVYLQMNSLKPEDTAVYYSAAQVRYGTATYHVSSYHYTRYGYWGQATQVTVSS,low polyreactivity
17,QVQRVESGGGLVQAGGSLGLSCAASGFTFIKYAMGWYRQAPGKEREFVASITYRGGSTYYADSVKGRLTISRDNAKNTVYLQMNSLKPEDTAVYYCAAGGPGRRYRVDYWGQGTQVTVSS,high polyreactivity
18,QVQLVESGGGLVQAGGSLRLSCAATGNIFADYAKGWYRQAPGKERELVAAITWSGDDTYYADSVKGRFTISRDNAKNTVYLQMNSLKPEDTAVYYCAAGYWRTSVDFDYWGQCTQVTVSS,low polyreactivity
19,QVQLVESGGGLVQSGGSLRLSCAASGRTLGYNAMGWYRQAPGKERELVASINSGVSTNYADSVKGRFTISRDNAKNTVYLQMNSLKPEDTAVYYCAAEKYGRGDGREGWEYDYWGQGTQVTVSS,low polyreactivity
20,QVQLVESGGGLVQAGGSLRLTCAASGLTFDSNVMGWYRQAPGKERELVAAITASGGRTYYADSVKGRFTISRDNAKNTVYLQMNSLKPEDTAVYYCAADSRSAYDYWGQGSQVTVSS,high polyreactivity
21,QLQLVESGGGLVQAGGSRRLSCAASGSTFGRYAMGWYRQAPGKERELVAAISRRGTSTYYADSVKGRFTISRDNAKNTVYIQMNSLKPEDTAVYYSNAVTSSFYNRDSDYWGQGTQVTVSS,high polyreactivity
